Data from PMC6831737.

Target: CAP256 SU gp140 (soluble cleavage-independent HIV-1 subtype C Env gp140 antigen) (HIV-1 subtype C, CAP256 SU virus)
Assay: SEC + native gel or EMSA; GNL affinity-purified protein in PBS pH 7.4, fractionated on Superdex 200 HiLoad 16/600; pooled peaks resolved by BN-PAGE (NativePAGE 3-12% Bis-Tris) and stained with Coomassie

## CAP256 SU gp140 (soluble cleavage-independent HIV-1 subtype C Env gp140 antigen) (domain or fragment)
  stoichiometry N: 3
